According to the supplement of paper PMC10567573:

B1: TRIM43 (parent)
chain: RAQMIRNEYRKLHPVLHKEEKQHL
B2: TRIM39 (parent)
chain: CKACITRWWEDLERDFPCPVCRKT

Variants of: B1
Experiment: protein stability index of a GFP-peptide fusion (GPS, HEK-293T) (PSI 1-6); higher = more stable
Conditions: c terminus: a fixed tail appended
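Also: lentivirally expressed fusions sorted by FACS into six bins by GFP to DsRed ratio, PSI derived from sequencing read proportions per bin multiplied by bin number.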

Question: Which protein stability index does the source give for RAQMIRNEPRKLHPVLHKEEKQHL [Y9P] here?
Answer: 3.93

Question: With RAVMIRNEYRKLHPVLHKEEKQHL [Q3V] as the variant, how does the protein stability index read?
Answer: 2.63

Question: With RANMIRNEYRKLHPVLHKEEKQHL [Q3N] as the variant, how does the protein stability index read?
Answer: 3.19

Question: With RAQMIRNEYRKLHPVLHKEEKQEL [H23E] as the variant, how does the protein stability index read?
Answer: 3.81

Question: For RAQMIRIEYRKLHPVLHKEEKQHL [N7I], which protein stability index is on record?
Answer: 2.57

Question: With RAQMIRKEYRKLHPVLHKEEKQHL [N7K] as the variant, how does the protein stability index read?
Answer: 3.44

Question: Which protein stability index does the source give for RAQMICNEYRKLHPVLHKEEKQHL [R6C] here?
Answer: 3.67

Question: Which protein stability index does the source give for RAQMIRNEYRALHPVLHKEEKQHL [K11A] here?
Answer: 3.14

Question: For RAQNIRNEYRKLHPVLHKEEKQHL [M4N], which protein stability index is on record?
Answer: 3.45

Question: For RAQIIRNEYRKLHPVLHKEEKQHL [M4I], which protein stability index is on record?
Answer: 2.6

Variants of: B2
Experiment: as above
Conditions: c terminus: a fixed tail appended

Question: Which protein stability index does the source give for CHACITRWWEDLERDFPCPVCRKT [K2H] here?
Answer: 4.08

Question: Which protein stability index does the source give for CQACITRWWEDLERDFPCPVCRKT [K2Q] here?
Answer: 4.08

Question: For CFACITRWWEDLERDFPCPVCRKT [K2F], which protein stability index is on record?
Answer: 3.34

Question: For CAACITRWWEDLERDFPCPVCRKT [K2A], which protein stability index is on record?
Answer: 4.08

Question: For CSACITRWWEDLERDFPCPVCRKT [K2S], which protein stability index is on record?
Answer: 4.59

Question: Which protein stability index does the source give for CVACITRWWEDLERDFPCPVCRKT [K2V] here?
Answer: 3.53

Question: For CGACITRWWEDLERDFPCPVCRKT [K2G], which protein stability index is on record?
Answer: 3.59

Question: With CTACITRWWEDLERDFPCPVCRKT [K2T] as the variant, how does the protein stability index read?
Answer: 4.05

Question: For CLACITRWWEDLERDFPCPVCRKT [K2L], which protein stability index is on record?
Answer: 3.58

Question: Which protein stability index does the source give for CRACITRWWEDLERDFPCPVCRKT [K2R] here?
Answer: 4.02

Question: Which protein stability index does the source give for CNACITRWWEDLERDFPCPVCRKT [K2N] here?
Answer: 4.4

Question: Which protein stability index does the source give for CCACITRWWEDLERDFPCPVCRKT [K2C] here?
Answer: 3.64

Question: Which protein stability index does the source give for CDACITRWWEDLERDFPCPVCRKT [K2D] here?
Answer: 4.5

Question: Which protein stability index does the source give for CEACITRWWEDLERDFPCPVCRKT [K2E] here?
Answer: 4.48

Question: With CYACITRWWEDLERDFPCPVCRKT [K2Y] as the variant, how does the protein stability index read?
Answer: 4.23

Question: With CIACITRWWEDLERDFPCPVCRKT [K2I] as the variant, how does the protein stability index read?
Answer: 3.25

Question: Which protein stability index does the source give for CPACITRWWEDLERDFPCPVCRKT [K2P] here?
Answer: 4.11

Question: With CMACITRWWEDLERDFPCPVCRKT [K2M] as the variant, how does the protein stability index read?
Answer: 3.69

Question: Which protein stability index does the source give for CWACITRWWEDLERDFPCPVCRKT [K2W] here?
Answer: 3.23

Question: Which protein stability index does the source give for CKICITRWWEDLERDFPCPVCRKT [A3I] here?
Answer: 3.9

Question: With CKFCITRWWEDLERDFPCPVCRKT [A3F] as the variant, how does the protein stability index read?
Answer: 3.17

Question: For CKCCITRWWEDLERDFPCPVCRKT [A3C], which protein stability index is on record?
Answer: 3.57

Question: With CKSCITRWWEDLERDFPCPVCRKT [A3S] as the variant, how does the protein stability index read?
Answer: 4.21

Question: Which protein stability index does the source give for CKHCITRWWEDLERDFPCPVCRKT [A3H] here?
Answer: 3.67

Question: With CKYCITRWWEDLERDFPCPVCRKT [A3Y] as the variant, how does the protein stability index read?
Answer: 3.9

Question: With CKTCITRWWEDLERDFPCPVCRKT [A3T] as the variant, how does the protein stability index read?
Answer: 4.85

Question: With CKRCITRWWEDLERDFPCPVCRKT [A3R] as the variant, how does the protein stability index read?
Answer: 3.53

Question: For CKWCITRWWEDLERDFPCPVCRKT [A3W], which protein stability index is on record?
Answer: 2.87

Question: For CKGCITRWWEDLERDFPCPVCRKT [A3G], which protein stability index is on record?
Answer: 4.09

Question: Which protein stability index does the source give for CKLCITRWWEDLERDFPCPVCRKT [A3L] here?
Answer: 3.8

Question: Which protein stability index does the source give for CKQCITRWWEDLERDFPCPVCRKT [A3Q] here?
Answer: 4.06

Question: Which protein stability index does the source give for CKMCITRWWEDLERDFPCPVCRKT [A3M] here?
Answer: 3.35

Question: For CKNCITRWWEDLERDFPCPVCRKT [A3N], which protein stability index is on record?
Answer: 4.16

Question: With CKPCITRWWEDLERDFPCPVCRKT [A3P] as the variant, how does the protein stability index read?
Answer: 2.48

Question: Which protein stability index does the source give for CKKCITRWWEDLERDFPCPVCRKT [A3K] here?
Answer: 3.06

Question: With CKECITRWWEDLERDFPCPVCRKT [A3E] as the variant, how does the protein stability index read?
Answer: 4.12

Question: Which protein stability index does the source give for CKDCITRWWEDLERDFPCPVCRKT [A3D] here?
Answer: 4.04

Question: With CKVCITRWWEDLERDFPCPVCRKT [A3V] as the variant, how does the protein stability index read?
Answer: 4.17

Question: With GKACITRWWEDLERDFPCPVCRKT [C1G] as the variant, how does the protein stability index read?
Answer: 1.74

Question: Which protein stability index does the source give for LKACITRWWEDLERDFPCPVCRKT [C1L] here?
Answer: 2.31

Question: With IKACITRWWEDLERDFPCPVCRKT [C1I] as the variant, how does the protein stability index read?
Answer: 1.27

Question: For NKACITRWWEDLERDFPCPVCRKT [C1N], which protein stability index is on record?
Answer: 1.67

Question: For FKACITRWWEDLERDFPCPVCRKT [C1F], which protein stability index is on record?
Answer: 1.42

Question: For RKACITRWWEDLERDFPCPVCRKT [C1R], which protein stability index is on record?
Answer: 2.43

Question: Which protein stability index does the source give for PKACITRWWEDLERDFPCPVCRKT [C1P] here?
Answer: 2.42

Question: Which protein stability index does the source give for AKACITRWWEDLERDFPCPVCRKT [C1A] here?
Answer: 1.94

Question: Which protein stability index does the source give for KKACITRWWEDLERDFPCPVCRKT [C1K] here?
Answer: 1.76

Question: For YKACITRWWEDLERDFPCPVCRKT [C1Y], which protein stability index is on record?
Answer: 1.72

Question: With SKACITRWWEDLERDFPCPVCRKT [C1S] as the variant, how does the protein stability index read?
Answer: 1.68

Question: Which protein stability index does the source give for EKACITRWWEDLERDFPCPVCRKT [C1E] here?
Answer: 2.07

Question: With TKACITRWWEDLERDFPCPVCRKT [C1T] as the variant, how does the protein stability index read?
Answer: 2.06

Question: For DKACITRWWEDLERDFPCPVCRKT [C1D], which protein stability index is on record?
Answer: 2.45

Question: Which protein stability index does the source give for HKACITRWWEDLERDFPCPVCRKT [C1H] here?
Answer: 2.16

Question: For WKACITRWWEDLERDFPCPVCRKT [C1W], which protein stability index is on record?
Answer: 2.56

Question: With MKACITRWWEDLERDFPCPVCRKT [C1M] as the variant, how does the protein stability index read?
Answer: 2.26

Question: For QKACITRWWEDLERDFPCPVCRKT [C1Q], which protein stability index is on record?
Answer: 2.3

Question: Which protein stability index does the source give for VKACITRWWEDLERDFPCPVCRKT [C1V] here?
Answer: 2.27

Question: With CKACILRWWEDLERDFPCPVCRKT [T6L] as the variant, how does the protein stability index read?
Answer: 3.58

Question: Which protein stability index does the source give for CKACIPRWWEDLERDFPCPVCRKT [T6P] here?
Answer: 3.5

Question: For CKACIKRWWEDLERDFPCPVCRKT [T6K], which protein stability index is on record?
Answer: 3.57

Question: Which protein stability index does the source give for CKACISRWWEDLERDFPCPVCRKT [T6S] here?
Answer: 3.62

Question: Which protein stability index does the source give for CKACIDRWWEDLERDFPCPVCRKT [T6D] here?
Answer: 4.27

Question: With CKACIGRWWEDLERDFPCPVCRKT [T6G] as the variant, how does the protein stability index read?
Answer: 4.36

Question: For CKACINRWWEDLERDFPCPVCRKT [T6N], which protein stability index is on record?
Answer: 4.38

Question: With CKACIHRWWEDLERDFPCPVCRKT [T6H] as the variant, how does the protein stability index read?
Answer: 3.28

Question: For CKACIFRWWEDLERDFPCPVCRKT [T6F], which protein stability index is on record?
Answer: 2.95

Question: With CKACIERWWEDLERDFPCPVCRKT [T6E] as the variant, how does the protein stability index read?
Answer: 4.03

Question: With CKACIVRWWEDLERDFPCPVCRKT [T6V] as the variant, how does the protein stability index read?
Answer: 2.71

Question: For CKACIQRWWEDLERDFPCPVCRKT [T6Q], which protein stability index is on record?
Answer: 3.77

Question: For CKACIARWWEDLERDFPCPVCRKT [T6A], which protein stability index is on record?
Answer: 3.64

Question: Which protein stability index does the source give for CKACIMRWWEDLERDFPCPVCRKT [T6M] here?
Answer: 3.27

Question: Which protein stability index does the source give for CKACIWRWWEDLERDFPCPVCRKT [T6W] here?
Answer: 3.36

Question: For CKACIRRWWEDLERDFPCPVCRKT [T6R], which protein stability index is on record?
Answer: 3.42

Question: For CKACICRWWEDLERDFPCPVCRKT [T6C], which protein stability index is on record?
Answer: 2.57

Question: Which protein stability index does the source give for CKACIYRWWEDLERDFPCPVCRKT [T6Y] here?
Answer: 3.33

Question: Which protein stability index does the source give for CKACIIRWWEDLERDFPCPVCRKT [T6I] here?
Answer: 3.01

Question: For CKACITRWYEDLERDFPCPVCRKT [W9Y], which protein stability index is on record?
Answer: 3.75

Question: With CKACITRWDEDLERDFPCPVCRKT [W9D] as the variant, how does the protein stability index read?
Answer: 4.55

Question: Which protein stability index does the source give for CKACITRWEEDLERDFPCPVCRKT [W9E] here?
Answer: 4.24

Question: For CKACITRWIEDLERDFPCPVCRKT [W9I], which protein stability index is on record?
Answer: 3.65

Question: With CKACITRWSEDLERDFPCPVCRKT [W9S] as the variant, how does the protein stability index read?
Answer: 4.56

Question: For CKACITRWNEDLERDFPCPVCRKT [W9N], which protein stability index is on record?
Answer: 4.52

Question: Which protein stability index does the source give for CKACITRWAEDLERDFPCPVCRKT [W9A] here?
Answer: 4.23

Question: Which protein stability index does the source give for CKACITRWTEDLERDFPCPVCRKT [W9T] here?
Answer: 4.25
